These results are taken from US20180064666A1.

This assay deals with GST-Pin1 (UniProt Q13526). Put plainly: fluorescence polarization; labelled pTide probe titrated with GST-Pin1 (the concentration is that of GST-Pin1). Background: In fluorescence polarisation assays a small probe gives low polarisation when free and higher when bound to something large.
Sequence of GST-Pin1 (Q13526 whole entry): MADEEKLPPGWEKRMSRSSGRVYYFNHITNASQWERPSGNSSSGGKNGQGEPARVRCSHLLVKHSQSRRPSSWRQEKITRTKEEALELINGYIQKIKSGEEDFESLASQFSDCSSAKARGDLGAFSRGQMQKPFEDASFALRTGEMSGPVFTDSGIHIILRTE

Usually EC50 (read off the curve) stands for the concentration giving half of the maximal effect. High values mean a less potent agent, low ones a more potent agent. For the substance “TAMRA-conjugated pTide (N-terminal TAMRA-labeled pTide, Bth-D-phos.Thr-Pip-Nal) (peptide)”, the EC50 (read off the curve) was found to be 0.5 µM.

As for “pTide-HiLyte™ Fluor 488 (N-terminal HiLyte™ Fluor 488-labeled pTide, Bth-D-phos.Thr-Pip-Nal) (peptide)”, the EC50 (read off the curve) came out at 0.5 µM.
